Consider 1 molecule from patent publication US10138280B2, “Polypeptides targeting glycosylated MUC2 proteins, methods of synthesis, their nucleic acids and uses thereof” (INSTITUT PASTEUR, priority 2011, dated 2018).

Data set [1] in a line: Analytical gel filtration for quaternary structure. Format: physicochemical. To be noted: gel filtration at 0.1 and 1 mg/ml; phosphate buffer. The procedure: FIGS. 7A-7D. Biochemical properties of MUB70. (FIG. 7A) MUB70 total charge was calculated using Protein Calculator program (Scripps website). (FIG. 7B) Kytes and Doolittle hydropathy profile of MUB70 was generated using ExPASy bioinformatical tools. (FIG. 7C) Validation of biot-MUB70 purity by gel filtration chromatography on Superdex 200 5/150 GL column. (FIG. 7D) Partition coefficients (Kav) of the standard proteins (ferritin, 440 kDa; aldolase, 158 kDa; ovalbumin, 43 kDa; ribonuclease A, 13.7 kDa; aprotinin, 6.5 kDa) were calculated according to Kav=(Ve−V0)/(Vt−V0) (Ve, elution volume; V0, void volume; Vt, total volume of the gel bed) and plotted against the corresponding molecular masses. The molecular mass of biot-MUB70 calculated using the calibration curve equation: log(Mr)=3.12−3.1 Kav.
[…] Standard proteins from the gel filtration calibration kit (ferritin, aldolase, ovalbumin, ribonuclease A, aprotinin; GE Healthcare, Uppsala, Sweden) were used for calibration. As control biot-MUB70 was visualized on 10% SDS-PAGE gel stained by Coomassie.
The theoretical molecular weight (MW) of a biotinylated MUB70 (biot-MUB70) is 8.8 kDa. […] This observation was confirmed with the fluorescent Cy5-MUB70 compound (data not shown). […] The elution profile was recorded at 280 nm. […]
Background: SEC sorts molecules by how far they enter the pores of the column.

For the next data set, the target named is T1, Muc2 (Homo sapiens, UniProt Q02817).
T1 construct: human colonic mucus extracts (produced in vitro from differentiated HT-29 MTX cells, see Methods); endogenous in cells; host or cells: HT-29 MTX human colonic epithelial cells, differentiated (21 days)
As to the kind of experiment: Pulldown assay with dot blot immunodetection, Muc2. Format: binding.

The next data set concerns the target T2, Muc5ac (Homo sapiens, UniProt P98088).
T2 construct: soluble human colonic mucus extracts were initially obtained from HT-29 MTX cell secretion product; endogenous in cells; host or cells: HT-29 MTX cells (secreted mucus, soluble fraction)
As to the kind of experiment: Pulldown assay with dot blot immunodetection, Muc5ac. Format: binding. To be noted: soluble human colonic mucus extract from HT-29 MTX; detected in the input. From the text: (§1) FIGS. 4A-4B. Cy5-MUB70 is specifically binding to the glycosylated moiety of Muc2 secreted in the colon mucus layer. (FIG. 4A) Immunodetection of Muc2, Muc5ac, Muc5b and Muc6 (dotblot analysis) on human mucus extracts eluted after a pulldown assay performed with biot-MUB70 on avidin conjugated beads (see Methods). Biotin is used as a negative control. Immunodetection of Muc2 (dotblot analysis) on deglycosylated mucus extracts eluted after a pulldown assay performed with biot-MUB70 on avidin conjugated beads. Non-deglycosylated mucus extract is used as a positive control. (FIG. 4B) Co-localization of Muc2 (green) and Cy5-MUB (blue) observed on fixed (Carnoy) human colon samples. Actin is stained in red (Phall.RRX). Observations are performed using a confocal microscope. Bars is 20 μm. […]
(§2) Soluble mucus components used in pulldown assays (input and output) were transferred to nitrocellulose membranes (Invitrogen), which were blocked in PBS/5% milk and further incubated with the primary antibodies diluted in PBS/1% milk/0.01% Tween20 (Sigma-Aldrich) overnight. […] Antibody binding was detected with chemiluminescence (ECL kit, GE Healthcare).

The next data set addresses T3, Muc5b (Homo sapiens, UniProt Q9HC84).
T3 construct: soluble human colonic mucus extracts were initially obtained from HT-29 MTX cell secretion product; endogenous in cells; host or cells: HT-29 MTX cells (secreted mucus, soluble fraction)
As to the kind of experiment: Pulldown assay with dot blot immunodetection, Muc5b. Format: binding. The conditions noted are these: soluble human colonic mucus extract from HT-29 MTX; detected in the input.
Excerpt: as §1, §2

In another data set the target is T4, Muc6 (Homo sapiens, UniProt Q6W4X9).
T4 construct: soluble human colonic mucus extracts were initially obtained from HT-29 MTX cell secretion product; endogenous in cells; host or cells: HT-29 MTX cells (secreted mucus, soluble fraction)
In words: Pulldown assay with dot blot immunodetection, Muc6. Format: binding. The conditions noted are these: soluble human colonic mucus extract from HT-29 MTX; detected in the input.
Excerpt: as §1, §2

T4 sequence (Q6W4X9 23-2439): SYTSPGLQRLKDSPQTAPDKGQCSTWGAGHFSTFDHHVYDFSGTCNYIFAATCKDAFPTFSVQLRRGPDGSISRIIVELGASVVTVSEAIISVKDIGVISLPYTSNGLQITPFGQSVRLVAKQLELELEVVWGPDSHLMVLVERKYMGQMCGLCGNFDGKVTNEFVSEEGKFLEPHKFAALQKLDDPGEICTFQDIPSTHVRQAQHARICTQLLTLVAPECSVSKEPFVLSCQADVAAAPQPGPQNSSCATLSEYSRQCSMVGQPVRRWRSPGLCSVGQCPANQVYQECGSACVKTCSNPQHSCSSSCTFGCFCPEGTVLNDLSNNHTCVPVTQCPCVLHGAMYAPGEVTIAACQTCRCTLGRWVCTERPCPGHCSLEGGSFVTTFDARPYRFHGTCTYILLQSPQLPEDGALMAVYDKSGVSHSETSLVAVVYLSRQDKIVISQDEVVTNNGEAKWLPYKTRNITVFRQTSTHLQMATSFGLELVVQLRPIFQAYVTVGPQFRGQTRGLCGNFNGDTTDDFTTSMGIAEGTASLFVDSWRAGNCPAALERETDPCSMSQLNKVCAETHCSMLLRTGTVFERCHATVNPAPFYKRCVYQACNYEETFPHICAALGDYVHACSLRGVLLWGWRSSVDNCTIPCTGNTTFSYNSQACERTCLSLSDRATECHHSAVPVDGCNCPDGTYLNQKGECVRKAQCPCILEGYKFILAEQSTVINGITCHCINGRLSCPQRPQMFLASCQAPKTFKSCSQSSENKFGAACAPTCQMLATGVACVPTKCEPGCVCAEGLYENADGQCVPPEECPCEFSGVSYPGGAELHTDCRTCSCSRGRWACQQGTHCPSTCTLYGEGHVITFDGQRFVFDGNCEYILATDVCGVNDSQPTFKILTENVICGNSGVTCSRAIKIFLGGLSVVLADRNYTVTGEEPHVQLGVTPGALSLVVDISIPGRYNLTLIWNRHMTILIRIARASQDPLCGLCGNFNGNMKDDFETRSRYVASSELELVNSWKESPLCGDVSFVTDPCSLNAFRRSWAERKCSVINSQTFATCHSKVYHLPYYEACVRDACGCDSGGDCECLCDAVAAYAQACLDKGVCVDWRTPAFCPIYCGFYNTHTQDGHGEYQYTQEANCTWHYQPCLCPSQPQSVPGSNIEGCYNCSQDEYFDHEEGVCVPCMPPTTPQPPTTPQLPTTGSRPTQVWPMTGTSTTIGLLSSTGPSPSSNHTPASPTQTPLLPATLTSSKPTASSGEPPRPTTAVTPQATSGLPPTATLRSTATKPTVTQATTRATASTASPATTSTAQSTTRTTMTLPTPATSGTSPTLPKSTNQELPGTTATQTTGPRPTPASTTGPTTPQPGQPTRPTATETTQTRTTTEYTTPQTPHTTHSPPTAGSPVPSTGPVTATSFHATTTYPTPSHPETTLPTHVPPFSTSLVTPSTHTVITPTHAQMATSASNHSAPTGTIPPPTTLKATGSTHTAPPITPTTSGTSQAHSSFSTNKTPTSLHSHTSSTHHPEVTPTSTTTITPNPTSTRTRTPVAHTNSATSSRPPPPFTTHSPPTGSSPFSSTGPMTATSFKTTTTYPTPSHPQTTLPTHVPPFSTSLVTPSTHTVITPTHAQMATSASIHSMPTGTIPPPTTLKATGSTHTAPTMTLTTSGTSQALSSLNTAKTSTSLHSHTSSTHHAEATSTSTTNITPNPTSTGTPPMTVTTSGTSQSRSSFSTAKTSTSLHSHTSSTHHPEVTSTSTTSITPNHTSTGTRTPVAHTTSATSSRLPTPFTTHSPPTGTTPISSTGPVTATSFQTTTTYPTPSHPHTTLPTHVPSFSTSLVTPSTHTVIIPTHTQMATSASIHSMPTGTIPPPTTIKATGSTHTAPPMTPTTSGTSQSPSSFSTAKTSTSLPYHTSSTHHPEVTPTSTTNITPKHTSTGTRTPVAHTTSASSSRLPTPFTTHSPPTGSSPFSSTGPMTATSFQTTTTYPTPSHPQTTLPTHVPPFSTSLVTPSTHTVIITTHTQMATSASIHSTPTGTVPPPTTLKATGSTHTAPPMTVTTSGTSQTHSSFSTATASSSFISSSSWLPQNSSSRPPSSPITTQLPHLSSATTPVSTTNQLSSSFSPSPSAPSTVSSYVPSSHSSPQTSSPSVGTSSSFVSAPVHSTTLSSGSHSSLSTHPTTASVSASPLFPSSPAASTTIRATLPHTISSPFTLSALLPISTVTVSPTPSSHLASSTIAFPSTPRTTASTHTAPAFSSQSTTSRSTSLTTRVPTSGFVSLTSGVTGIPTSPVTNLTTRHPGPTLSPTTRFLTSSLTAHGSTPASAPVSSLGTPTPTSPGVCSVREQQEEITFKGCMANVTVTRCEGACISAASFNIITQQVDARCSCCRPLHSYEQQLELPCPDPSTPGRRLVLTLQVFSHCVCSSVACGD

B1: biot-MUB70: biotinylated form of MUB70 (maleimide-PEG2-biotin on N-terminal cysteine) (conjugate)
peptide: CVHVQYIDGETDQMLRQDDLDGYTDETIPYSTAEGIKKFEGDGYELFKDNFPAGEKFDNDDTNDQFYTVIF
As for B1, the quaternary structure entry in data set [1] is reported as “exists as trimer”. For the same molecule, in the data set with Muc2 (chemically deglycosylated mucus extract), the “Muc2 interaction after chemical deglycosylation of mucus extract” value was “abolished the interaction”. The “Muc2 interaction after desulfatation of mucus extract” value with Muc2 (desulfatation (glycosylsulfatase)) is given as “loss of this interaction”. Further, the “Muc2 in eluted fraction of pulldown” value with Muc2 (soluble human colonic mucus extract from HT-29 MTX, avidin beads) was “immunodectected in the eluted fraction”. For the same molecule, in the data set with Muc5ac, the “Muc5ac in eluted fraction of pulldown” value was “absent from the eluted fraction”. The “Muc5b in eluted fraction of pulldown” value with Muc5b is listed as “absent from the eluted fraction”. Further, the “Muc6 in eluted fraction of pulldown” value in the data set with Muc6 is recorded as “absent from the eluted fraction”.
